Reference: US12618050B2, “Engineered polypeptides that exhibit increased catalytic efficiency for unnatural cofactors and uses thereof” (The Regents of the University of California, priority 2018, dated 2026)
Entries after “also recorded” stand apart in the source; their conditions may differ.

Assays:
[1] = GDH enzymatic assay with NAD^+ as cofactor; type: biochemical; settings: for Kcat / Km: cofactor NAD^+
Procedure: (§1) GDH enzymatic assays. The GDH activity was measured as described in Hilt et al. (Biochimica et biophysica acta 1076(2):298-304 (1991)). The reactions were started by adding the purified protein to the assay mixture containing 35 mM Tris-HCl buffer (pH 8.0), 3 mM NAD^+, NADP^+ or NMN^+ and 140 mM glucose. The absorbance variation at 340 nm was detected by a spectrophotometer at 25° C.

[2] = Protein expression levels of GDH variants; design: species or system Escherichia coli; settings: expressed in E. coli
Procedure: Proteins were purified as 6×His tag fusion at the N-terminus. E. coli BL21 (DE3) with plasmids were inoculated into LB medium with 200 mg L^−1 ampicillin. Cells were induced with 0.5 mM IPTG and expressed for 24 hours at 30° C. with shaking at 250 rpm. BM3 cytochrome P450 was extracted with the EMD Millipore™ BugBuste Plus Lysonase Kit and purified using the HisPur™ Ni-NTA Superflow Purification System according to the manufacturer's instructions. Other proteins were purified using His-Spin Protein Miniprep kit (Zymo Research Corporation, CA). The purified proteins were quantified by Bradford assay.

[3] = GDH enzymatic assay with NADP^+ as cofactor; type: biochemical; settings: for Kcat / Km: cofactor NADP^+
Procedure: as §1

[4] = XenA-GDH coupled cycling biotransformation of ketoisophorone to levodione; type: biochemical
Procedure: Coupled enzymatic biotransformation. All biotransformation reactions were performed in buffer A at 30° C. for 24 hours. Reaction buffer A, modified from that disclosed in Chaparro-Riggers et al., Advanced Synthesis & Catalysis 349(8-9):1521-1531 (2007)), contained 200 mM potassium phosphate buffer (pH 7.5), 1 M NaCl, 300 mM D-glucose, 6 mM NMN^+ (or NADP^+ as the positive control), and substrates. All assays were performed in triplicate, with no proteins or no cofactors added as negative controls. The protein loading for GDH variants was kept at 0.33 mg mL^−1 or 11.7 μM. The various enzymes for biotransformation reactions were added at the concentration of 0.75 mg mL^−1.
For XenA-GDH coupled cycling assays, the substrates ketoisophorone, citral, or trans-2-hexen-1-al were added at 33 mM, 10 mM, or 50 mM, respectively. For the OYE3-GDH coupled cycling assays, the substrate 4-phenyl-3-butyn-2-one was added at 5 mM. At various time points over 24 hours, 100 μL samples were taken and extracted with 100 μL ethyl acetate. Conversion was determined via GC-FID with octanol as an internal standard (see below). For NfsB-GDH coupled cycling assays, 2 mM nitrofurazone was used as the substrate. Nitrofurazone conversion was measured spectroscopically at 400 nm and quantification was performed using a standard curve. The initial levels of the above-mentioned substrates were mainly determined by their solubility in the assay buffer. For BM3-GDH coupled cycling assays, 50 μM cytochrome c (C2506 Sigma) was used as the substrate. The reduction of cytochrome c was measured spectroscopically at 550 nm. and the quantification was performed using extinction coefficient ε550 of 21.1 mM^−1 cm^−1.
Coupled cycling conditions: All biotransformation reactions were performed in buffer A at 30° C. for 24 hours. Reaction buffer A contained 200 mM potassium phosphate buffer (pH 7.5), 1 M NaCl, 300 mM D-glucose, 6 mM NMN^+. Substrate ketoisophorone was added at 5 g/L. At various time points over 24 hours, 100 μL samples were taken and extracted with 100 μL ethyl acetate. Conversion was determined via GC-FID with octanol as an internal standard (see below).

[5] = GDH enzymatic assay with NMN^+ as cofactor; type: biochemical; settings: for Kcat / Km: cofactor NMN^+
Procedure: as §1

E. coli strain MX103 = assay: E. coli growth with NMN^+-dependent glycolysis; type: cell-based, Escherichia coli
E. coli whole cells = assay: NMN^+-dependent whole-cell biotransformation of KIP; type: cell-based, Escherichia coli
Procedure: NMN^+-dependent whole-cell biotransformation. One biotransformation plasmid expressing XenA, LVR, or ADH with a GDH (selected from pLZ217-pLZ225) and pSM104 containing the glucose transport facilitator were transformed into strain MX102 by electroporation. 4 mL seed cultures of 2×YT media with appropriate antibiotics, 0.1 mM IPTG, and 0.2% (wt/v) glucose were cultured at 30° C. while shaking at 250 rpm for 16 hours. 0.5% (v/v) seed cultures were used to inoculate 150 mL of 2×YT media with appropriate antibiotics, A5 trace metals with cobalt, and 0.5 mM IPTG in a 250 mL baffled shake flask and cultured at 30° C. at 250 rpm. When an OD600˜0.4 was reached, protein expression was induced with 0.1% (w/v) arabinose and cultured for an additional 8 hours at 30° C. while shaking at 250 rpm. Cells were harvested by centrifugation for 15 minutes at 20° C. at 3750 rpm. The supernatant was discarded. Nutrients from the media were removed by washing the pelleted cells 3 times with 50 mL of 100 mM potassium phosphate at pH 7.5. Cells were resuspended to an OD600 of 100 in assay buffer consisting of 100 mM potassium phosphate buffer at pH 7.5, 200 mM D-glucose, 0.5% arabinose, and 0.5 mM IPTG. 1 mL of resuspended cells were added to 20 mL of identical assay buffer in a 250 mL unbaffled, screw-cap shake flask. KIP was spiked into the flask to 5 g/L to initiate the reaction. Flask caps were secured tightly to prevent evaporative loss of substrate or products. Flasks were incubated at 30° C. while shaking at 250 rpm for 48 hours. After 48 hours, 1 mL of culture was pelleted, and the supernatant was used for analysis. 200 μL of supernatant was extracted with an equal volume of ethyl acetate containing 200 mg/L octanol as an internal standard, and the samples were analyzed by gas chromatography. For samples expressing all three conversion enzymes (XenA, LVR, and ADH) on the same vector (pLZ226), the Bs GDH was expressed individually on a separate vector (pSM106, pSM107, or pSM108). The Zm glf gene was also expressed in the system (pSM110).

[6] = XenA activity with different cofactors; type: biochemical; settings: ketoisophorone as substrate
Procedure: Enzyme assay conditions: The enzymatic buffer contained 200 mM phosphate buffer (pH 7.5), 5 mM ketoisophorone, and 0.2 mM NADPH, NADH, or NMNH, and appropriate amount of purified XenA protein. The initial reaction rate was quantified by absorbance variation at 340 nm using a spectrophotometer at 37° C. Reactions with no ketoisophorone added were performed to quantify the non-specific reaction rate. The net reaction rate as shown in FIG. 13 was calculated by subtracting the non-specific reaction rate from the total reaction rate. For generating NMNH, a microcentrifuge tube (2 mL) containing 35 mM Tris-HCl (pH 8.0), 4 mM NMN^+, 1 M NaCl and 140 mM glucose, was incubated for ˜3 hr at 30° C. with purified Bs GDH I195R. An aliquot of this reaction system was taken to measure the accumulation of NMNH by reading absorbance at 340 nm. The proteins in the reaction were removed by filtering the mixture with centrifugal filter units (Amicon Ultra-0.5 Centrifugal Filter Units, Millipore, USA). The solvent was evaporated, and the residue was collected to give NMNH as a yellowish oil.

[7] = specific activity towards NMN^+

B1: I195R: Bs GDH, same sequence as SEQ ID NO:1 except I195R (SEQ ID NO:2) (protein)
chain: MYPDLKGKVVAITGAASGLGKAMAIRFGKEQAKVVINYYSNKQDPNEVKEEVIKAGGEAVVVQGDVTKEEDVKNIVQTAIKEFGTLDIMINNAGLENPVPSHEMPLKDWDKVIGTNLTGAFLGSREAIKYFVENDIKGNVINMSSVHEVIPWPLFVHYAASKGGIKLMTETLALEYAPKGIRVNNIGPGAINTPRNAEKFADPKQKADVESMIPMGYIGEPEEIAAVAAWLASKEASYVTGITLFADGGMTQYPSFQAGRG
modifications: I195R mutant GDH coding sequence
B1 showed a Kcat [1] of 7.3 ± 1.1 s⁻¹, a Km [1] of 0.053 ± 0.0092 mM and an Expression level [2] of 108.83 μg protein/ml culture. The Kcat [3] was 2.5 ± 0.21 s⁻¹, the Km [3] was 0.016 ± 0.0008 mM and the “initial productivity of levodione” value ([4]; NMN^+ as cycling cofactor, XenA in excess, GDH 11.7 μM) was about 0.51 µM/s. The “improvement of NMN^+-dependent productivity” value ([4]; versus wild type Bs GDH) was 10 fold, the Kcat [5] was 1.1 ± 0.27 s⁻¹ and the Km [5] was 8.9 ± 0.69 mM. The “improvement of specific activity towards NMN^+” value ([5]; versus wild-type Bs GDH) was 545 fold.

B2: I195R-A93K-Y39Q-S17E: Bs GDH with I195R, A93K, Y39Q, S17E substitutions (SEQ ID NO:7) (protein)
chain: MYPDLKGKVVAITGAAEGLGKAMAIRFGKEQAKVVINYQSNKQDPNEVKEEVIKAGGEAVVVQGDVTKEEDVKNIVQTAIKEFGTLDIMINNKGLENPVPSHEMPLKDWDKVIGTNLTGAFLGSREAIKYFVENDIKGNVINMSSVHEVIPWPLFVHYAASKGGIKLMTETLALEYAPKGIRVNNIGPGAINTPRNAEKFADPKQKADVESMIPMGYIGEPEEIAAVAAWLASKEASYVTGITLFADGGMTQYPSFQAGRG
modifications: I195R A93K Y39Q S17E mutant GDH coding sequence
For B2, the Kcat [1] was 0.025 ± 0.002 s⁻¹, the Km [1] was 6.5 mM and the “drop of catalytic efficiency for NAD^+ upon introducing S17E” value ([1]; compared with GDH Triple) was 220 fold. For the same molecule, the Kcat [3] was 0.022 ± 0.013 s⁻¹, the Km [3] was 2 mM and the “drop of catalytic efficiency for NADP^+ upon introducing S17E” value ([3]; compared with GDH Triple) was 890 fold. For the same molecule, the “cell growth on glucose” value (E. coli strain MX103; minimal glucose medium, GDH without XenA) was “did not grow”, the “cell growth on glucose” value (E. coli strain MX103; minimal medium, glucose sole carbon source, GDH with XenA, listed as GDH Ortho) was “able to grow; also recorded: supported E. coli growth on glucose” and the “levodione fraction of total products by mass” value (E. coli whole cells; XenA, LVR and ADH over-expressed simultaneously) was about 92%. For the same molecule, the “LVR- and ADH-catalyzed formation of phorenol or HIP” value (E. coli whole cells; resting cells with LVR or ADH) was “minimal levels of phorenol or HIP”, the levodione produced (E. coli whole cells; resting cells with XenA, 5 g/L KIP, glucose co-substrate) was about 1 g/L and the “change of NMN^+-dependent catalytic efficiency compared with GDH Triple” value [5] was “modest reduction”. For the same molecule, the Kcat [5] was 1.21 ± 0.09 s⁻¹, the Km [5] was 5.9 ± 1 mM and the “overall specificity switch towards NMN^+ from NADP^+” value ([5]; compared to wild type) was ~1×10^7 fold. For the same molecule, the “overall specificity switch towards NMN^+ from NAD^+” value ([5]; compared to wild type) was ~2×10^7 fold.

B3: I195R-Y39Q: Bs GDH variant I195R Y39Q (protein)
chain: MYPDLKGKVVAITGAASGLGKAMAIRFGKEQAKVVINYQSNKQDPNEVKEEVIKAGGEAVVVQGDVTKEEDVKNIVQTAIKEFGTLDIMINNAGLENPVPSHEMPLKDWDKVIGTNLTGAFLGSREAIKYFVENDIKGNVINMSSVHEVIPWPLFVHYAASKGGIKLMTETLALEYAPKGIRVNNIGPGAINTPRNAEKFADPKQKADVESMIPMGYIGEPEEIAAVAAWLASKEASYVTGITLFADGGMTQYPSFQAGRG
In the case of B3, the Expression level [2] is reported as 57.60 μg protein/ml culture, the “lower activity than GDH Triple” value [5, 7] is reported as 14 fold and the “slower than I195R” value [5, 7] is reported as 2.4 fold.

B4: I195R-A93K: Bs GDH variant I195R A93K (protein)
chain: MYPDLKGKVVAITGAASGLGKAMAIRFGKEQAKVVINYYSNKQDPNEVKEEVIKAGGEAVVVQGDVTKEEDVKNIVQTAIKEFGTLDIMINNKGLENPVPSHEMPLKDWDKVIGTNLTGAFLGSREAIKYFVENDIKGNVINMSSVHEVIPWPLFVHYAASKGGIKLMTETLALEYAPKGIRVNNIGPGAINTPRNAEKFADPKQKADVESMIPMGYIGEPEEIAAVAAWLASKEASYVTGITLFADGGMTQYPSFQAGRG
With B4 the Expression level [2] was 11.17 μg protein/ml culture and the “lower activity than GDH Triple” value [5, 7] was 9 fold.

B5: XenA: enoate reductase XenA from Pseudomonas putida, wild type (protein, listed as Pseudomonas putida)
chain: MSALFEPYTLKDVTLRNRIAIPPMCQYMAEDGLINDWHQVHYASMARGGAGLLVVEATAVAPEGRITPGCAGIWSDAHAQAFVPVVQAIKAAGSVPGIQIAHAGRKASANRPWEGDDHIGADDARGWETIAPSAIAFGAHLPNVPRAMTLDDIARVKQDFVDAARRARDAGFEWIELHFAHGYLGQSFFSEHSNKRTDAYGGSFDNRSRFLLETLAAVREVWPENLPLTARFGVLEYDGRDEQTLEESIELARRFKAGGLDLLSVSVGFTIPETNIPWGPAFMGPIAERVRREAKLPVTSAWGFGTPQLAEAALQANQLDLVSVGRAHLADPHWAYFAAKELGVEKASWTLPAPYAHWLERYR
With B5 the “activity with NMNH as reducing cofactor” value [6] was “comparable activity to the natural cofactors NADH and NADPH; also recorded: comparable activity to the natural cofactors NADPH and NADH”.
